Results as given in PMC11329700 (2024).

B1: GST-Dyn1xA-PRR (dynamin 1xA proline-rich region, amino acids 746-864) [rat] / Amphiphysin 1 [rat (endogenous in rat brain synaptosomes)] (parent complex)
chain 1: NTTTVSTPMPPPVDDSWLQVQSVPAGRRSPTSSPTPQRRAPAVPPARPGSRGPAPGPPPAGSALGGAPPVPSRPGASPDPFGPPPQVPSRPNRAPPGVPSRSGQASPSRPESPRPPFDL
chain 2: MADIKTGIFAKNVQKRLNRAQEKVLQKLGKADETKDEQFEEYVQNFKRQEAEGTRLQRELRGYLAAIKGMQEASMKLTESLHEVYEPDWYGREDVKMVGEKCDVLWEDFHQKLVDGSLLTLDTYLGQFPDIKNRIAKRSRKLVDYDSARHHLEALQSSKRKDESRISKAEEEFQKAQKVFEEFNVDLQEELPSLWSRRVGFYVNTFKNVSSLEAKFHKEIAVLCHKLYEVMTKLGDQHADKAFSIQGAPSDSGPLRIAKTPSPPEEASPLPSPTASPNHTLAPASPAPVRPRSPSQTRKGPPVPPLPKVTPTKELQQENIINFFEDNFVPEINVTTPSQNEVLEVKKEETLLDLDFDPFKPDVTPAGSAAATHSPMSQTLPWDLWTTSTDLVQPASGGSFNDFTQPQDTSLFTMQTDQNMAETEQALPTEPQAEEPPTTAAAPTAGLDLGLEMEEPKEEAAIPPGTDAGETVGTEGSTGEEAEAEKAALPAGEGESPEGAKIDVESTELASSESPQAAELEAGAPQEKVIPSVVIEPASNHEGEEHQETTTGTETREATEDVAPQGPAGEKQELATEPTPLDSQAATPAPAGAVDASLSAGDAAQELPPGFLYKVETLHDFEAANSDELTLQRGDVVLVVPSDSEADQDAGWLVGVKESDWLQYRDLATYKGLFPENFTRHLE

Variants of: B1
Assay: GST pull-down, quantified Western blot; parent: 60; read off a plot

| Variant | response |
| --- | --- |
| chain 1 NTTTVSTPMPPPVDDSWLQVQSVPAGRRSPTSSPTPQRRAPAVPPARPGSRGPAPGPPPAGSALGGAPPVPSRPGASPDPFGPPPQVPSRPNRAPPGVPSASGQASPSRPESPRPPFDL [chain 1 R101A] | ~51 normalized intensity |
